Tests used:
[1] = frontal affinity chromatography (FAC), association constant to PA sugar chains having α1→6 L-fucose; type: binding; details: 25 degrees C.
Description: The following section will describe a method of calculating an association constant by frontal affinity chromatography (FAC). This method is based on the following principle. […] Then, the elution front end (front) is observed immediately. When there is an affinity with lectin, the elution of the sugar chain is delayed.
The preparation of a lectin column used in the apparatus is performed in the method as described below. 1. Purified lectin is dissolved in 0.1 to 0.2M of NaHCO3 buffer solution (pH 8.3 to 8.5). 2. The lectin is immobilized, via a lectin primary amino group, a carrier such as NHS activated sepharose. 3. Then, the lectin is blocked by Tris buffer solution including primary amine or ethanolamine for example. 4. Lectin-sepharose is suspended in 10 mM Tris buffer, including 0.8% of NaCl (pH 7.4, TBS). Then, lectin immobilized resin is filled in a miniature column (φ2 mm×10 mm, 31.4 μl). 5. The miniature column in which the lectin immobilized resin is filled is protected by a holder and the lectin column is connected to an FAC automatic analysis apparatus (FAC-1, SHIMADZU CORPORATION).
Then, the elution of the PA sugar chain from the column is detected by a fluorescence detector (excitation wavelength/fluorescence wavelength: 310 nm/380 nm).
Based on the detection data, by using the elution front end (Vo) of the sugar chain (PA rhamnose) not interacting with lectin as a reference, the delay (V−Vo) of the elution front end (V) of a sugar chain interacting with lectin is calculated as an interaction strength. Then, based on the following FAC criteria expressions, the association constant (Ka) between the sugar chain and lectin is calculated based on V−Vo and Bt. If the interaction strength (V−Vo value) and the association constant are higher, a higher affinity is caused between lectin and an L-fucose α1→6 sugar chain.
[In the formula, A means substance used for the elution, Ao means the initial concentration of the substance A, B means a immobilized ligand, V means the elution volume, Vo means the elution front end volume of the substance not interacting with the immobilized ligand B at all, Bt means an effective ligand amount, Kd means a dissociation constant (an inverse of the association constant)].
Pyridylaminated (PA) sugar chains shown in FIG. 1 and FIG. 2 were used to frontal affinity chromatography (FAC) analysis. PA sugars were purchased from TAKARA BIO INC., SEIKAGAKU BIOBUSINESS CORPORATION, and Masuda Chemical Industries co., LTD. PA sugar were also obtained by pyridylaminating, by GlycoTAG®(TAKARA BIO INC.), an unlabeled sugar chain or a sugar chain obtained by subjecting a sugar chain to enzyme digestion for example.
Lectin was dissolved in 0.2 M NaHCO3 buffer solution (pH 8.3) including 0.5 M NaCl and coupled to the NHS-activated sepharose (GE Healthcare Bioscience) by following the manufacturer's instructions. Then, lectin immobilized sepharose was suspended in 10 mM Tris buffer (pH 7.4, TBS) including […] and the resultant matter was filled in a miniature column (φ2 mm×10 mm, 31.4 μl).
Frontal affinity chromatography was performed using FAC automatic analysis apparatus (FAC-1, SHIMADZU CORPORATION). In particular, the above-prepared lectin column was inserted to a stainless steel holder and the holder was connected to FAC-1 apparatus. The flow rate and the column temperature were maintained at 0.125 ml/min and 25 degrees C., respectively. After the miniature column was equilibrated by the TBS, an excessive volume (0.5 ml to 4 ml) of a PA sugar chain (3.75 nM or 7.5 nM) was continuously inputted to the column using an automatic sampling apparatus.
The fluorescent strength of the eluate of the PA sugar (excitation wavelength of 310 nm and fluorescence wavelength of 380 nm) was monitored to measure the interaction strength [a difference of the front end eluate to the standard oligosaccharide (PA rhamnose): V−V0]. […]

glycoproteins = test: hemagglutinating inhibition test with glycoproteins (sugar binding specificity); type: cell-based
Description: The sugar binding specificity of lectin also can be confirmed by using erythrocytes that can be specifically agglutinated by the lectin to investigate the sugar type that may inhibit the agglutination of the erythrocytes and the concentration thereof.
Various monosaccharides, oligosaccharides, and polysaccharides shown in Table 2 and glycoproteins shown in Table 3 were subjected to hemagglutinating inhibition test to evaluate PTL of Example 1 and the SRL of Example 2 with regard to the sugar binding specificity.
On a 96 well U-bottom microtiter plate, double dilution series of 10 μl of monosaccharide, oligosaccharide, polysaccharide, and glycoprotein solutions were prepared. Then, lectin solution adjusted in advance to have titer 4 was added in an amount of 10 μl to the respective wells. Then, the plate was subjected to a still-standing at a room temperature for one hour for sensitization. Then, 10 μl of 4%-red blood cell suspension was added to the respective wells and the plate was further subjected to a still-standing at a room temperature for one hour. […] The lowest concentration showing the inhibition was assumed as the minimum inhibition concentration. The lower the minimum inhibition concentration is, the higher the specificity to lectin is.
For comparison, the sugar binding specificity was evaluated using the following commercially-available lectins: Comparison Example 1: AAL (SEIKAGAKU BIOBUSINESS CORPORATION—J-OIL MILLS, Inc.), Comparison Example 2: AOL (TOKYO CHEMICAL INDUSTRY CO., LTD.—Gekkeikan Sake Company, Ltd.), Comparison Example 3: LCA (SEIKAGAKU BIOBUSINESS CORPORATION—J-OIL MILLS, Inc.), and Comparison Example 4: PSA (SEIKAGAKU BIOBUSINESS CORPORATION—J-OIL MILLS, Inc.).

[2] = inhibitor: Bovine blood serum albumin
[3] = inhibitor: Human immune globulin A
[4] = inhibitor: Human immune globulin G
[5] = inhibitor: α1-acidic glycoprotein

Molecule	association constant Ka ([1]; Sugar chain No. 015)	association constant Ka ([1]; Sugar chain No. 201)	association constant Ka ([1]; Sugar chain No. 202)	association constant Ka ([1]; Sugar chain No. 203)	association constant Ka ([1]; Sugar chain No. 401)	association constant Ka ([1]; Sugar chain No. 402)	association constant Ka ([1]; Sugar chain No. 403)	association constant Ka ([1]; Sugar chain No. 404)	association constant Ka ([1]; Sugar chain No. 405)	association constant Ka ([1]; Sugar chain No. 406)	association constant Ka ([1]; Sugar chain No. 407)	association constant Ka ([1]; Sugar chain No. 410)	association constant Ka ([1]; Sugar chain No. 413)	association constant Ka ([1]; Sugar chain No. 418)	association constant Ka ([1]; Sugar chain No. 601)	association constant Ka ([1]; Sugar chain No. 602)	minimum inhibition concentration of hemagglutination (glycoproteins; inhibitor: Asialofetuin)	minimum inhibition concentration of hemagglutination (glycoproteins; inhibitor: Asialomucin (pig))	minimum inhibition concentration of hemagglutination (glycoproteins; [2])	minimum inhibition concentration of hemagglutination (glycoproteins; inhibitor: Casein)	further results
Pisum sativum agglutinin (protein) TETTSFLITKFSPDQQNLIFQGDGYTTKEKLTLTKAVKNTVGRALYSSPIHIWDRETGNVANFVTSFTFVINAPNSYNVADGFTFFIAPVDTKPQTGGGYLGVFNSAEYDKTTQTVAVEFDTFYNAAWDPSNRDRHIGIDVNSIKSVNTKSWKLQNGEEANVVIAFNAATNVLTVSLTYPNSLEEENVTSYTLSDVVSLKDVVPEWVRIGFSATTGAEYAAHEVLSWSFHSELSGTSSSKQAADA	120000 M⁻¹	100000 M⁻¹	44000 M⁻¹	25000 M⁻¹	92000 M⁻¹	48000 M⁻¹	38000 M⁻¹	45000 M⁻¹	36000 M⁻¹	13000 M⁻¹	<1000 M⁻¹	<1000 M⁻¹	<1000 M⁻¹	<1000 M⁻¹	31000 M⁻¹	29000 M⁻¹	>250 μl/ml	>250 μl/ml	>250 μl/ml	>250 μl/ml	minimum inhibition concentration of hemagglutination (glycoproteins; inhibitor: Fetuin): >250 μl/ml; minimum inhibition concentration of hemagglutination (glycoproteins; [3]): >250 μl/ml; minimum inhibition concentration of hemagglutination (glycoproteins; [4]): >250 μl/ml; minimum inhibition concentration of hemagglutination (glycoproteins; inhibitor: Lactoferrin): >250 μl/ml; minimum inhibition concentration of hemagglutination (glycoproteins; inhibitor: Mucin (bovine)): >250 μl/ml; minimum inhibition concentration of hemagglutination (glycoproteins; inhibitor: Mucin (pig)): >250 μl/ml; minimum inhibition concentration of hemagglutination (glycoproteins; inhibitor: Ribonuclease): >250 μl/ml; minimum inhibition concentration of hemagglutination (glycoproteins; inhibitor: Thyroglobulin): 62.5 μl/ml; minimum inhibition concentration of hemagglutination (glycoproteins; inhibitor: Transferrin): >250 μl/ml; minimum inhibition concentration of hemagglutination (glycoproteins; [5]): >250 μl/ml
Lens culinaris agglutinin (protein) chain 1: TETTSFSITKFSPDQKNLIFQGDGYTTKGKLTLTKAVKSTVGRALYSTPIHIWDRDTGNVANFVTSFTFVIDAPSSYNVADEFTFFIAPVDTKPQTGGGYLGVFNSKEYDKTSQTVAVEFDTFYNAAWDPSNKERHIGIDVNSIKSVNTKSWNLQNGERANVVIAFNAATNVLTVTLTYP chain 2: VTSYTLNEVVPLKDVVPEWVRIGFSATTGAEFAAHEVHSWSFHSELGGTSSS	56000 M⁻¹	500000 M⁻¹	110000 M⁻¹	73000 M⁻¹	42000 M⁻¹	59000 M⁻¹	99000 M⁻¹	58000 M⁻¹	47000 M⁻¹	18000 M⁻¹	1000 M⁻¹	<1000 M⁻¹	<1000 M⁻¹	<1000 M⁻¹	30000 M⁻¹	24000 M⁻¹	250 μl/ml	>250 μl/ml	>250 μl/ml	>250 μl/ml	minimum inhibition concentration of hemagglutination (glycoproteins; inhibitor: Fetuin): >250 μl/ml; minimum inhibition concentration of hemagglutination (glycoproteins; [3]): >250 μl/ml; minimum inhibition concentration of hemagglutination (glycoproteins; [4]): >250 μl/ml; minimum inhibition concentration of hemagglutination (glycoproteins; inhibitor: Lactoferrin): >250 μl/ml; minimum inhibition concentration of hemagglutination (glycoproteins; inhibitor: Mucin (bovine)): >250 μl/ml; minimum inhibition concentration of hemagglutination (glycoproteins; inhibitor: Mucin (pig)): >250 μl/ml; minimum inhibition concentration of hemagglutination (glycoproteins; inhibitor: Ribonuclease): >250 μl/ml; minimum inhibition concentration of hemagglutination (glycoproteins; inhibitor: Thyroglobulin): 62.5 μl/ml; minimum inhibition concentration of hemagglutination (glycoproteins; inhibitor: Transferrin): >250 μl/ml; minimum inhibition concentration of hemagglutination (glycoproteins; [5]): >250 μl/ml

From patent US8461305B2, “L-fucose α1→6 specific lectin” (J-Oil Mills, Inc., priority 2008, dated 2013)
